The values below come from patent US20120141451A1.

pKd: −log10 of the molar value.

For assay [1], the target named is rat NCAM F3 modules 1-2 (rat) (UniProt P13596). Nature of the assay: SPR (BIAcore2000), soluble FGFR Ig2 on immobilized NCAM F3 modules 1-2.
The target in assay [2] is Ig2 module of mouse FGFR1 (IIIc isoform) (mouse) (UniProt P16092). Put plainly: SPR (BIAcore2000), soluble NCAM F3 modules 1-2 on immobilized FGFR Ig2.
Sequence of Ig2 module of mouse FGFR1 (IIIc isoform) (mouse) (P16092 other isoform, or with tags, fused parts or gaps limits assumed, form in doubt): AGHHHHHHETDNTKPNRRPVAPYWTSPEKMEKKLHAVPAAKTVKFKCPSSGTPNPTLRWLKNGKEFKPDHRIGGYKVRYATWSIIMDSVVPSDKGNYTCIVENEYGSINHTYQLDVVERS

Sequence of rat NCAM F3 modules 1-2 (rat) (P13596 other isoform, or with tags, fused parts or gaps limits assumed, form in doubt): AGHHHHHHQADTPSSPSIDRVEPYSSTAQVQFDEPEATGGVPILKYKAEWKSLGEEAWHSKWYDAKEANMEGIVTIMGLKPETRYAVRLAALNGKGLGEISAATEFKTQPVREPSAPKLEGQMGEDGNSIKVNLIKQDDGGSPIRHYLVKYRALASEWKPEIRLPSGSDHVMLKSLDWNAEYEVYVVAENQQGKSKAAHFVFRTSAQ

“Ig2 module of mouse FGFR1 (IIIc isoform) (from UniProt P16092 140-251) (receptor)” gave a pKd in assay [1] of 4.46.
With “rat NCAM F3 modules 1-2 (from UniProt P13596 507-705) (receptor)”, the pKd in assay [2] was 4.92.
